{
  "source": "paper PMC11092803",
  "about": "“Heme allocation in eukaryotic cells relies on mitochondrial heme export through FLVCR1b to cytosolic GAPDH” (Research Square, 2024)",
  "binders": {"B1": {"name": "H53A point mutant variant of HA-hGAPDH (natural protein)", "chain": "not shown", "notes": "human GAPDH with H53A, expressed from the H53A variant of pRK5-TC-hGAPDH-HA; also called H53A HA-GAPDH; HA-H53A; source: HEK293T, transfected (H53A variant of pRK5-TC-hGAPDH-HA), in cells; in solubilised mitochondria"}, "B2": {"name": "Transport and Golgi Organization 2 (TANGO2) protein (natural protein, human (endogenous in HEK293T), UniProt Q6ICL3 1-276, looked up)", "chain": "MCIIFFKFDPRPVSKNAYRLILAANRDEFYSRPSKLADFWGNNNEILSGLDMEEGKEGGTWLGISTRGKLAALTNYLQPQLDWQARGRGELVTHFLTTDVDSLSYLKKVSMEGHLYNGFNLIAADLSTAKGDVICYYGNRGEPDPIVLTPGTYGLSNALLETPWRKLCFGKQLFLEAVERSQALPKDVLIASLLDVLNNEEAQLPDPAIEDQGGEYVQPMLSKYAAVCVRCPGYGTRTNTIILVDADGHVTFTERSMMDKDLSHWETRTYEFTLQS", "notes": "TANGO2, endogenous in human HEK293T cells, detected with an anti-TANGO2 antibody (Invitrogen PA5-51818); also called Transport and Golgi organization 2 homolog; T2; source: endogenous, HEK293T cells"}, "B3": {"name": "glyceraldehyde phosphate dehydrogenase (GAPDH) (natural protein)", "chain": "not shown", "notes": "Glyceraldehyde 3-phosphate dehydrogenase, endogenous in the human HEK293T cell line, detected with an anti-GAPDH antibody; In the experiments on isolated mouse mitochondria the GAPDH came with HEK293T cytosol, but mouse GAPDH that stayed on the mitochondria cannot be ruled out; also called Glyceraldehyde 3-phosphate dehydrogenase; source: endogenous, HEK293T cells; endogenous, solubilised HEK293T …"}},
  "settings_in_all_cases": "partners not purified",
  "key": {"[1]": {"biological_target": "T1, Feline Leukemia Virus subgroup C Receptor 1b (FLVCR1b) (human (endogenous in HEK293T), UniProt Q9Y5Y0-2 1-279)", "T1 construct": "FLVCR1 isoform b, the mitochondrially targeted version of FLVCR1a that is missing the first six transmembrane helices; endogenous in human HEK293T cells, detected or precipitated with an anti-FLVCR antibody (Novus NB100-1481); The antibody is named as against human FLVCR / FLVCR1; also called Feline leukemia virus subgroup C receptor 1 isoform b; source: endogenous, HEK293T cells; endogenous, …", "T1 sequence (looked up)": "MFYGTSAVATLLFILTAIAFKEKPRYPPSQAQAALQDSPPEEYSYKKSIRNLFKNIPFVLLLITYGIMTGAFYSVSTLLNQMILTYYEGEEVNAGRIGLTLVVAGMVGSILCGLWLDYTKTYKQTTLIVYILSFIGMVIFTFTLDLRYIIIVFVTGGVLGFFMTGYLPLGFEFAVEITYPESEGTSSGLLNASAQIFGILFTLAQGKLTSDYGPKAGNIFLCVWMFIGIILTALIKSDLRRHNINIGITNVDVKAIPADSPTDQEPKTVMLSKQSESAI", "test": "proximity ligation; Duolink PLA on HEK293T cells transfected with HA-tagged GAPDH wild type or H53A, antibodies to HA and FLVCR1; resting and at times after δ-ALA/Fe; background = one primary antibody alone"}, "[2]": {"biological_target": "T1, Feline Leukemia Virus subgroup C …", "test": "proximity ligation; Duolink PLA on fixed, permeabilised heme-depleted HEK293T cells, pairs of primary antibodies to the endogenous proteins; 0, 15, 30, 45, 60 and 120 min after δ-ALA (1 mM) and ferric citrate (100 μM); also in cells with control siRNA or knock-down of TANGO2 or GAPDH; background = one primary antibody alone, set to 1.0"}, "[3]": {"biological_target": "B3", "test": "proximity ligation; Duolink PLA on fixed, permeabilised heme-depleted HEK293T cells, pairs of primary antibodies to the endogenous proteins; 0, 15, 30, 45, 60 and 120 min after δ-ALA (1 mM) and ferric citrate (100 μM); also in cells with control siRNA or knock-down of TANGO2 or GAPDH; background = one primary antibody alone, set to 1.0"}, "[4]": {"biological_target": "T2, FLVCR1b in isolated mouse mitochondria (mouse (endogenous in brain and liver …, UniProt B2RXV4-2 1-279))", "T2 construct": "Detected with the antibody named as against FLVCR1 (Novus NB100-1481); also called mitochondrial FLVCR1b; source: endogenous, mitochondria isolated from mouse brain and liver", "T2 sequence (looked up)": "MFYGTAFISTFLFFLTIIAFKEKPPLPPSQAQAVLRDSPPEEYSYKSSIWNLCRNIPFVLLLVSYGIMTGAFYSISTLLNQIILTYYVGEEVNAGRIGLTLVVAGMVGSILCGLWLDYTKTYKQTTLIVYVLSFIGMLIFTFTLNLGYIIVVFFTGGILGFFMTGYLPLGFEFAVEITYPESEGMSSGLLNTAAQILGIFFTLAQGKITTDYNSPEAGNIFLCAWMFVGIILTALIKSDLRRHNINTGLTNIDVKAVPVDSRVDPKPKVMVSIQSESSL", "test": "proximity ligation; Duolink PLA on mitochondria from mouse brain and liver, before or after incubation with δ-ALA and mitochondria-free HEK293T cytosol (control or TANGO2 knock-down cells) at 37 °C, reisolated and placed on poly-D-lysine coverslips"}},
  "data": [
    {"binder": "B1", "values": [
      {"measurement": "PLA signal over background, resting cells", "setting": "[1]", "result": "~2", "unit": "fold over background"}
    ]},
    {"binder": "B2", "values": [
      {"measurement": "PLA signal over background, resting cells", "setting": "[2]", "result": 5, "unit": "fold over background"},
      {"measurement": "PLA signal over background", "setting": "[3]", "result": 2.5, "unit": "fold over background"}
    ]},
    {"binder": "B3", "values": [
      {"measurement": "PLA signal over background, resting cells", "setting": "[2]", "result": 2.5, "unit": "fold over background"},
      {"measurement": "fold increase of PLA signal 30 min after δ-ALA/Fe", "setting": "[2]", "result": 18, "unit": "fold"},
      {"measurement": "fold increase of PLA signal after 30 min with δ-ALA and cytosol", "setting": "[4]", "result": 4, "unit": "fold"}
    ]}
  ]
}
